Source: patent US20020127594A1 (Takeda / Millennium, published 2002)

Molecular target: p185 (erbB2), 185 kDa receptor-type tyrosine kinase of the EGFR family, in MDA-MB453 breast adenocarcinoma … (UniProt P04626 23-1255, limits assumed)
Assay: cell-based or functional assay

phosphorylation of the 185 kDa protein in MDA-MB453 cells (antiphosphotyrosine Western blot): ~10 fold
B1: Don-1 EGF domain-containing fusion polypeptide (EGF domain and flanking amino acids 85-154 of murine Don-1, C-terminal Flag epitope tag), secreted by … (ligand, not shown: small tags and cut ends)
chain: LHVNSVSTTLSSWSGHARKCNETAKSYCVNGGVCYYIEGINQLSCKCPNGFFGQRCLEKLPLRLYMPDPK
